The values that follow are results of earlier work, collected in publication PMC11145553.

The data set deals with LRP1 (Homo sapiens) (UniProt Q07954).
LRP1 (Homo sapiens), sequence (Q07954 20-4544): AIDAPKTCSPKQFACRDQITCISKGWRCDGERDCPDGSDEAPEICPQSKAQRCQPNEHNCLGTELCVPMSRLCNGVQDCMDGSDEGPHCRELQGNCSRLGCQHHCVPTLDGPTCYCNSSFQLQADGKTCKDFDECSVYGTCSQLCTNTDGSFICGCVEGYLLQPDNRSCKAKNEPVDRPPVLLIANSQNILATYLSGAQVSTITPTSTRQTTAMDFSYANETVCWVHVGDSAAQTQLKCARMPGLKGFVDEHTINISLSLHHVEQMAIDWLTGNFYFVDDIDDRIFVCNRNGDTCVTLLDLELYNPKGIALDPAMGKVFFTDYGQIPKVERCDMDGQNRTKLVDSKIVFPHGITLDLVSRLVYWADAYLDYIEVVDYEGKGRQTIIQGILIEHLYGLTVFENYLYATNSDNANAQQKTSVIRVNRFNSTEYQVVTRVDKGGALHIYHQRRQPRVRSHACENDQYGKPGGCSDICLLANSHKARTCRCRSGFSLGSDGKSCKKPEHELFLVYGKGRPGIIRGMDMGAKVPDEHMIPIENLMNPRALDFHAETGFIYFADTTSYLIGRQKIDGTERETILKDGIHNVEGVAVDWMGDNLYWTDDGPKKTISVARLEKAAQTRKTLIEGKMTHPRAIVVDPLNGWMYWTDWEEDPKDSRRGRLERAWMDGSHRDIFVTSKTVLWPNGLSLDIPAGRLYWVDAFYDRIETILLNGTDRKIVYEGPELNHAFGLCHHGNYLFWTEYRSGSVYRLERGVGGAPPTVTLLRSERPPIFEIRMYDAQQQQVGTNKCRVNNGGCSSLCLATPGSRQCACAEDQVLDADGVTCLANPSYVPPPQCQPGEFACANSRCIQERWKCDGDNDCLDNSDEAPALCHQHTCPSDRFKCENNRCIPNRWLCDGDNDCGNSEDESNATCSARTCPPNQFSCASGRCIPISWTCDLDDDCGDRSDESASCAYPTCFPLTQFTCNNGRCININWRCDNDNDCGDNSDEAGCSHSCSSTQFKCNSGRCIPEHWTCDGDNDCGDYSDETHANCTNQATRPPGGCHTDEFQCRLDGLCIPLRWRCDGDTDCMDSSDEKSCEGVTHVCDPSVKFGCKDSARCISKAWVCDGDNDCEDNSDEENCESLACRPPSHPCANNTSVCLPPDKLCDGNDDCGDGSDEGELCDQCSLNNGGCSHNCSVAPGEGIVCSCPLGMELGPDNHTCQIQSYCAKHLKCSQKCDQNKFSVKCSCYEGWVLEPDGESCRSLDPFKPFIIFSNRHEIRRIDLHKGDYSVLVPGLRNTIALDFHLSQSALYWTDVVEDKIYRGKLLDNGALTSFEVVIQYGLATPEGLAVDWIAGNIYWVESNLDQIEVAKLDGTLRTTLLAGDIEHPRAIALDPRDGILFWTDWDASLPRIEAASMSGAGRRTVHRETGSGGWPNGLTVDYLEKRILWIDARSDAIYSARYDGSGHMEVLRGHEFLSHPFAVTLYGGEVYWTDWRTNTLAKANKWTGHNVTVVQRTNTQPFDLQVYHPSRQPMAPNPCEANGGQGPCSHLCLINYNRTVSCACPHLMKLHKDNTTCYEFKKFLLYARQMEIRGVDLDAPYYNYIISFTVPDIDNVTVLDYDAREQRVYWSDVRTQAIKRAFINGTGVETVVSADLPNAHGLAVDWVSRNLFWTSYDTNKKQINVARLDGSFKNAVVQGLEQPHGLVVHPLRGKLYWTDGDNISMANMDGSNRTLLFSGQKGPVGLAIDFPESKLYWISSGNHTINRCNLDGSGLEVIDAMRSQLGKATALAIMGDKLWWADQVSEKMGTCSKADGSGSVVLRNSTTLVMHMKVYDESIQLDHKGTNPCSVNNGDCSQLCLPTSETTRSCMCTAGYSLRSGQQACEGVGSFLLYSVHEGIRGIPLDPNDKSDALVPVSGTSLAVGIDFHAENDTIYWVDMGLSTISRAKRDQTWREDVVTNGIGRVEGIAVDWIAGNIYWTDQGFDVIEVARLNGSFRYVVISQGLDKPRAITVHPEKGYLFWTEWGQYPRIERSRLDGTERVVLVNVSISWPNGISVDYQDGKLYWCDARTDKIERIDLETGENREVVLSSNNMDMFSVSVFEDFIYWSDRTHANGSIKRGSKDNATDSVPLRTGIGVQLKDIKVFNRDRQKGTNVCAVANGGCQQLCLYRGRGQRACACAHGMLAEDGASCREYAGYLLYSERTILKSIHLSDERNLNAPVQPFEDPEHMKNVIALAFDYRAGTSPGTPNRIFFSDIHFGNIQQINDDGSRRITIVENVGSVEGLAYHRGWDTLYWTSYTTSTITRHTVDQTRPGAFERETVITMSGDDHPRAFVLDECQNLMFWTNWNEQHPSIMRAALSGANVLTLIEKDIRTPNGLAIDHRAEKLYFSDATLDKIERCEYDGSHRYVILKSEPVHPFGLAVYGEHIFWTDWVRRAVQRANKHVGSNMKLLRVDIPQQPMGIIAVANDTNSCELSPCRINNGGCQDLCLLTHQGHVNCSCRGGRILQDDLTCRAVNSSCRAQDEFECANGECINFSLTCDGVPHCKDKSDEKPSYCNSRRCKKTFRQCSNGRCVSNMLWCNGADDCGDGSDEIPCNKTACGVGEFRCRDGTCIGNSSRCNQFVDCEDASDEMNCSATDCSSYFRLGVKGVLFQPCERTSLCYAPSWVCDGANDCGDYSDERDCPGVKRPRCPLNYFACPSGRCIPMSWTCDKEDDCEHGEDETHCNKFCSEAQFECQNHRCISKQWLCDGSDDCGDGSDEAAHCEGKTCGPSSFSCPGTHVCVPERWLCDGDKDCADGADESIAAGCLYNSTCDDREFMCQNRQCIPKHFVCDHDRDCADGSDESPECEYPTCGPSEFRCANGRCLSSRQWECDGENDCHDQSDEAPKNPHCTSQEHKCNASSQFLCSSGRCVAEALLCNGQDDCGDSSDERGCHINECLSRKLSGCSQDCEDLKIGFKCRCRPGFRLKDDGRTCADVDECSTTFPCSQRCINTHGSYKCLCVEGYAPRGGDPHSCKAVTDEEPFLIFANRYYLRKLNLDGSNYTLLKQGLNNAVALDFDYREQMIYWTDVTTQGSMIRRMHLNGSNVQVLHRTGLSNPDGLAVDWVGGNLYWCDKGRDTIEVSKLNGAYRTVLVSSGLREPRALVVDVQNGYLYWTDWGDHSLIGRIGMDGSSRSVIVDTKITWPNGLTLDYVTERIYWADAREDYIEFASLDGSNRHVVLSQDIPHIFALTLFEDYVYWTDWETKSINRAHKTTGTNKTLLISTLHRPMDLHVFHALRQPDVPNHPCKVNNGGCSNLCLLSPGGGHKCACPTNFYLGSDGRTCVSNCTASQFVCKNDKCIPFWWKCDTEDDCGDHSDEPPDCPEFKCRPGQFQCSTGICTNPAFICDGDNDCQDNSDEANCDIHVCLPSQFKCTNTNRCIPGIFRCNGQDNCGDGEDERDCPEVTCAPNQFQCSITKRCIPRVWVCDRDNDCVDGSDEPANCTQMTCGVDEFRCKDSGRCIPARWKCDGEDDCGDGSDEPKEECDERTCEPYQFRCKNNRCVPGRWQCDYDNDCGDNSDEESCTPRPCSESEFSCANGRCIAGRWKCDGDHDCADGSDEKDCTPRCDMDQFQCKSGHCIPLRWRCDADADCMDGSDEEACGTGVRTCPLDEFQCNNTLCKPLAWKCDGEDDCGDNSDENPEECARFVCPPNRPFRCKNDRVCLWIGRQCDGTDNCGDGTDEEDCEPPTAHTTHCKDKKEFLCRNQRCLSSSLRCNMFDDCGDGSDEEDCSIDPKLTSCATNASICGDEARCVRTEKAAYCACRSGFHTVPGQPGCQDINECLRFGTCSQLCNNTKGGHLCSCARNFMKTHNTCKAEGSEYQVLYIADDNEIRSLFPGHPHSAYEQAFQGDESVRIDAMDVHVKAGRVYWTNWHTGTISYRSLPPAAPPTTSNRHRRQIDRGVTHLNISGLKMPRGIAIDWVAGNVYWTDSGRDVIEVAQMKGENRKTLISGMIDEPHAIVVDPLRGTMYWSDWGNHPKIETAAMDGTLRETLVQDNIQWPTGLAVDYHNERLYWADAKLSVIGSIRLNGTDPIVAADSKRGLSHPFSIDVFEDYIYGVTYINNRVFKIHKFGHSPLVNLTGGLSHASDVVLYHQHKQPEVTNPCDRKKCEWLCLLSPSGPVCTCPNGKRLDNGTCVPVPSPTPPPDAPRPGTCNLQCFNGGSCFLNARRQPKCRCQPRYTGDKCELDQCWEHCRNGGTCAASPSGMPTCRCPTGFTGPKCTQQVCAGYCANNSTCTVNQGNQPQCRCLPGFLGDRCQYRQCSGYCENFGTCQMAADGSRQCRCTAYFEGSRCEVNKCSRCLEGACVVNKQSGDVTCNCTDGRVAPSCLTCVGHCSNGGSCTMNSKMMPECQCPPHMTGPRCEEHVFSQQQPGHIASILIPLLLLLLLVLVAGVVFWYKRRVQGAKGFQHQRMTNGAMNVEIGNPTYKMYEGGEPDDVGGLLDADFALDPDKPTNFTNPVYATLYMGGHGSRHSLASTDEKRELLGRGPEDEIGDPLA

As usually defined, the Kd is the equilibrium constant for the complex coming apart. Regarding 2N4R tau (from UniProt P10636), the Kd was 60 nM.
